Test [1] concerns the target microtubules (tubulin purified from cow brains) (cow) (UniProt Q6B856). In words: co-sedimentation.
The target of test [2] is Xenopus laevis Bonsai CENP-E (Xenopus laevis). The experiment in a line: single-molecule fluorescence brightness and photobleaching steps.

On to “Xenopus laevis full-length CENP-E (natural protein)”, for which the dissociation constant (Kd) in test [1] was 24 nM.

The substance Xenopus laevis Bonsai CENP-E had a stoichiometry N in test [2] of 2.

The term Kd denotes a measure of binding affinity in units of concentration. A low value points to a tighter complex. Broadly, the stoichiometry N is the number of molecules, sites or subunits per partner or assembly.
